Patent US20210196823A1, “Methods of Treating Metabolic Disease” (Pfizer Inc., priority 2018, published 2021)
Blank lines part the entries; values can stand above or below the molecule they belong to.

Experiments:
[1] = system: biotinylated monoFC-muErfe; experiment: FRET assay: BMPs disrupting binding of cryptate-labelled anti-ERFE antibody 15.1 to biotinylated monoFC-muErfe; parameters: species or system murine; settings: competing antigen 250 nM to 0.39 nM, Ab 15.1 15 nM, 3 hours room temperature
Experimental: (a) Investigation of the ability of BMPs to disrupt binding of cryptate-labelled anti-ERFE antibody to biotinylated murine ERFE: FRET assay was used to determine the ability of BMPs to disrupt binding between ERFE and a neutralising anti-ERFE antibody (Ab 15.1). The assay setup comprised streptavidin XL665 (cisbio assays) at a constant concentration of 1:1000 to be 50 ng per well, biotinylated monoFC-muErfe (9 μM) i.e. a monomeric FC murine ERFE fusion, cryptate labelled anti-ERFE antibody (Ab 15.1) at 15 nM. Each reaction well contained a total volume of 20 μl comprising: 5 μl streptavidin XL665, 5 μl Biotinylated monoFC-muErfe, 5 μl cryptate labelled anti-ERFE antibody 15.1, 5 μl competing antigen as a titration from 250 nM to 0.39 nM, all antigens at each concentration were assayed in duplicate. Reactions were left for 3 hours at room temperature and then […] at 665 nm and […] was read on the Envision. […] The assay was also conducted using a non-neutralising anti-ERFE antibody as a control.

[2] = system: HAMP-nanoluciferase fusion in HepG2 hepatoma cells; experiment: hepcidin transcriptional fusion reporter assay (nano-luc / nano-luciferase assay); format: cell-based; settings: for hepcidin expression (hepcidin-nanoluciferase fusion expression): NanoLuc cells, serially diluted BMP, 24 h
Experimental: The was measured in-vitro using as follows: A hepcidin transcriptional fusion reporter assay (nano-luc or nano-luciferase assay) was developed to assess the effect of BMPs on hepcidin production in-vitro. A nanoluciferase reporter was inserted at the end of the coding sequence of the endogenous HAMP gene, in HepG2 hepatoma cells, creating a HAMP-nanoluciferase fusion. CRISPR-Cas9 was used to edit the cells with this knock-in reporter construct. A bovine Growth Hormone poly A was included after the nanoLuc to ensure proper mRNA processing. A Puromycin-TK expression cassette was also included 3′ of the nanoluc reporter to enrich for properly targeted clones. […] Approximately 20,000 cells (cells split with trypsin/EDTA) were suspended in 200 uL of complete media (DMEM+10% serum+Na pyruvate) and were distributed into each well of 96-well plates and incubated for 24 hours at 37 C. Media was then aspirated and the cells treated in 100 uL complete media for 24 h at 37 C in the presence of the selected BMP which was serial diluted (in duplicates), controls of fresh media alone were used for a baseline signal (in duplicate). Following the incubation 90 uL of supernatant was transferred to a white wall 96 well plate and equilibrated at RT, 90 uL of RT NanoLuc reagent was added/well (for 1 plate, 10 mL diluting reagent+200 uL NanoLuc substrate—from Nano-Glo Luciferase Assay System, Promega, ref cat #N1150) and mixed 2-3 min at room temperature. Plates were read on Envision with Lum700 program following the manufacturer's instructions.

[3] = system: SMAD1/5/8 phosphorylation in Huh7 cells; experiment: Western blot of SMAD1/5/8 phosphorylation in Huh7 cells; format: cell-based; settings: Huh7, BMP6 stimulation, 30 min
Experimental: (d) ERFE effects on BMP/SMAD signalling measured by SMAD 1/5/8 phosphorylation: To confirm the suppression of BMP/SMAD signalling, we analysed phosphorylation of SMAD1/5/8, required to transduce the signal leading to HAMP upregulation. Analysis was carried out by Western blot according to the following methodology: Cells were lysed at 4° C. using RIPA buffer (Thermo Scientific) containing protease/phosphatase inhibitor (Cell Signalling). Lysates were denatured at 95° C. and separated on a 10% SDS polyacrylamide gel (Bio-Rad), following the manufacturer's instruction. Protein sizes were estimated by using the Novex Sharp Pre-Stained Protein Ladder (life technologies). Protein was transferred to a nitrocellulose membrane, then blocked with milk/TBS for 1 h. Antibodies used were anti-P-SMAD 1/5 (S463s/465)/9(S465/467) (Cell signalling 13820S 1:500), anti-Smad1 (Cell Signalling 6944S 1:500), anti-β-actin-peroxidase (Sigma A3854 1:10 000), and Anti-rabbit IgG HRP conjugated (RnD systems HAP008 1:5000). […] In this case Huh7 cells were treated with mouse ERFE (10 μg/ml) or BMP6 and LDN, a small molecule inhibitor of BMPs, (100 nM), alone or in combination, for 30 min and pSMAD/SMAD ratios values were calculated by densitometry. Erythroferrone caused a decrease in SMAD phosphorylation relative to non-treated cells (FIG. 3D).

BMP4 = biological target: T1, BMP4 (UniProt P12644 293-408); experiment: SPR (Biacore)
T1 chain: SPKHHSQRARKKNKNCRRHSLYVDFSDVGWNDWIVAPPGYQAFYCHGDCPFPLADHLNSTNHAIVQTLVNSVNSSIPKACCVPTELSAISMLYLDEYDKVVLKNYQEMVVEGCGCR

BMP2 = biological target: T2, BMP2 (UniProt P12643 283-396); experiment: SPR (Biacore)
T2 chain: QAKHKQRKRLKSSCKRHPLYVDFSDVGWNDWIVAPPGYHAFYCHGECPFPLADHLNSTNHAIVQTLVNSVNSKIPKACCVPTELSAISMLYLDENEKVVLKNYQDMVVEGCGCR

BMP6 = biological target: T3, BMP6 (UniProt P22004 382-513); experiment: SPR (Biacore)
T3 chain: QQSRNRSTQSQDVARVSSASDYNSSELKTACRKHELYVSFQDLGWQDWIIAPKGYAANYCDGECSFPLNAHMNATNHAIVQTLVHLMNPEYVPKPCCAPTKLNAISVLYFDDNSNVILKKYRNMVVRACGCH

Huh7 cells = experiment: Gene expression microarray of Huh7 cells treated with ERFE; format: cell-based; settings: Huh7, ERFE 10 μg/ml, 24 h
Experimental: (b) Gene expression microarray: Microarray analysis of Huh7 cells treated with mouse or human erythroferrone was carried out to test the activity of erythroferrone on the BMP/SMAD signalling pathway. Generally cell treatments were carried out according to the following protocol: Huh7 and HepG2 were cultured in Dulbecco's Modified Eagle's Medium—High Glucose (Sigma), supplemented with 10% Fetal Bovine Serum (Sigma), 1% Penicillin-Streptomycin (Sigma) and 1% L-Glutamine (Sigma), unless otherwise indicated. Cells were plated 24 h before treatments in 24-well (gene expression analysis) or 12-well (protein analysis) cell culture plates. At the time of treatment, cells were washed with PBS and fresh media was added.
For the purposes of gene expression microarray analysis RNA was isolated from the Huh7 cells using RNeasy Plus kit (Qiagen), this was followed by RNA quantification and quality assessment using a 2100 Bioanalyzer (Agilent). RNA was converted into biotin labelled cRNA for hybridization and gene expression analysed using the Human HT12v4.0 Expression Beadchip (Illumina) and the Illuminas's iScan Scanner. Raw data was normalised using the lumi package (Bioconductor) and compared using LIMMA (Bioconductor). Statistical significance was set at p<0.05.

Chain of biotinylated monoFC-muErfe (Q6PGN1 25-340): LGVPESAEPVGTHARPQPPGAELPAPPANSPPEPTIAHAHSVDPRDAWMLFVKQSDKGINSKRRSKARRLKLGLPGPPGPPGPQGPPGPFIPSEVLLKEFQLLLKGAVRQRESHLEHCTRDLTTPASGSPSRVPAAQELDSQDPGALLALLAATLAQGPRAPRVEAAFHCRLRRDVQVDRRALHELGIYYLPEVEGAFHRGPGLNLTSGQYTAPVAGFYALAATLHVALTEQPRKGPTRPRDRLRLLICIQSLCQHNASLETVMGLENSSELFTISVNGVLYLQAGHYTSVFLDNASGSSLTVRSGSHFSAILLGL

Molecule: BMP4: bone morphogenetic protein 4 (R&D systems)
competition with cryptate labelled anti-ERFE antibody for binding to biotinylated monoFC-muErfe [1]: did not compete effectively

B1: BMP9: bone morphogenetic protein 9 (R&D systems) (protein)
chain: SAGAGSHCQKTSLRVNFEDIGWDSWIIAPKEYEAYECKGGCFFPLADDVTPTKHAIVQTLVHLKFPTKVGKACCVPTKLSPISVLYKDDMGVPTLKYHYEGMSVAECGCR
hepcidin expression (hepcidin-nanoluciferase fusion expression) [2]: dose-dependent increase

B4: BMP5: bone morphogenetic protein 5 (R&D systems) (protein)
chain: AANKRKNQNRNKSSSHQDSSRMSSVGDYNTSEQKQACKKHELYVSFRDLGWQDWIIAPEGYAAFYCDGECSFPLNAHMNATNHAIVQTLVHLMFPDHVPKPCCAPTKLNAISVLYFDDSSNVILKKYRNMVVRSCGCH
competition with cryptate labelled anti-ERFE antibody for binding to biotinylated monoFC-muErfe [1]: measurable competition

B6: monoFC-huErfe: monomeric Fc fusion of human ERFE; FIG. 3L legend names the A4 mutant (protein)
chain: AAGLGSPEPGAPSRSRARREPPPGNELPRGPGESRAGPAARPPEPTAERAHSVDPRDAWMLFVRQSDKGVNGKKRSRGKAKKLKFGLPGPPGPPGPQGPPGPIIPPEALLKEFQLLLKGAVRQRERAEPEPCTCGPAGPVAASLAPVSATAGEDDDDVVGDVLALLAAPLAPGPRAPRVEAAFLCRLRRDALVERRALHELGVYYLPDAEGAFRRGPGLNLTSGQYRAPVAGFYALAATLHVALGEPPRRGPPRPRDHLRLLICIQSRCQRNASLEAIMGLESSSELFTISVNGVLYLQMGQWTSVFLDNASGCSLTVRSGSHFSAVLLGV
modifications: left off: a dimerising Fc or GST
suppression of hepcidin production (NanoLuc) ([2]; two fold dilutions from 600 nM, 24 hours): dose dependent

B7: human ERFE: recombinant human erythroferrone, SEQ ID NO: 1 (protein, listed as Homo sapiens)
chain: MAPARRPAGARLLLVYAGLLAAAAAGLGSPEPGAPSRSRARREPPPGNELPRGPGESRAGPAARPPEPTAERAHSVDPRDAWMLFVRQSDKGVNGKKRSRGKAKKLKFGLPGPPGPPGPQGPPGPIIPPEALLKEFQLLLKGAVRQRERAEPEPCTCGPAGPVAASLAPVSATAGEDDDDVVGDVLALLAAPLAPGPRAPRVEAAFLCRLRRDALVERRALHELGVYYLPDAEGAFRRGPGLNLTSGQYRAPVAGFYALAATLHVALGEPPRRGPPRPRDHLRLLICIQSRCQRNASLEAIMGLESSSELFTISVNGVLYLQMGQWTSVFLDNASGCSLTVRSGSHFSAVLLGV
target genes of the JAK/STAT3 pathway (Huh7 cells): No changes | number of suppressed genes (Huh7 cells; 5 are BMP/SMAD targets ID1, ID2, ID3, SMAD6, HAMP): 12

Continued, in another order:

competition with cryptate labelled anti-ERFE antibody for binding to biotinylated monoFC-muErfe [1]: measurable competition
B2: BMP6: bone morphogenetic protein 6 (R&D systems) (protein)
chain: QQSRNRSTQSQDVARVSSASDYNSSELKTACRKHELYVSFQDLGWQDWIIAPKGYAANYCDGECSFPLNAHMNATNHAIVQTLVHLMNPEYVPKPCCAPTKLNAISVLYFDDNSNVILKKYRNMVVRACGCH
SMAD phosphorylation [3]: increase | hepcidin expression (hepcidin-nanoluciferase fusion expression) [2]: dose-dependent increase

competition with cryptate labelled anti-ERFE antibody for binding to biotinylated monoFC-muErfe [1]: measurable competition
B3: BMP7: bone morphogenetic protein 7 (R&D systems) (protein)
chain: STGSKQRSQNRSKTPKNQEALRMANVAENSSSDQRQACKKHELYVSFRDLGWQDWIIAPEGYAAYYCEGECAFPLNSYMNATNHAIVQTLVHFINPETVPKPCCAPTQLNAISVLYFDDSSNVILKKYRNMVVRACGCH

Kd (BMP4): 41.1 nM | Kd (BMP2): 16.1 nM | Kd (BMP6): 1.17 nM
B5: ERFE A4-biotin (ligand)
chain: AAGLGSPEPGAPSRSAAAAEPPPGNELPRGPGESRAGPAARPPEPTAERAHSVDPRDAWMLFVRQSDKGVNGKKRSRGKAKKLKFGLPGPPGPPGPQGPPGPIIPPEALLKEFQLLLKGAVRQRERAEPEPCTCGPAGPVAASLAPVSATAGEDDDDVVGDVLALLAAPLAPGPRAPRVEAAFLCRLRRDALVERRALHELGVYYLPDAEGAFRRGPGLNLTSGQYRAPVAGFYALAATLHVALGEPPRRGPPRPRDHLRLLICIQSRCQRNASLEAIMGLESSSELFTISVNGVLYLQMGQWTSVFLDNASGCSLTVRSGSHFSAVLLGV
modifications: biotin (site not stated)
